Assays:
WD40 domain of Gemin5 = biological target: T1, WD40 domain of Gemin5 (Homo sapiens, UniProt Q8TEQ6); assay: isothermal titration calorimetry; format: binding
T1 sequence (Q8TEQ6 1-739): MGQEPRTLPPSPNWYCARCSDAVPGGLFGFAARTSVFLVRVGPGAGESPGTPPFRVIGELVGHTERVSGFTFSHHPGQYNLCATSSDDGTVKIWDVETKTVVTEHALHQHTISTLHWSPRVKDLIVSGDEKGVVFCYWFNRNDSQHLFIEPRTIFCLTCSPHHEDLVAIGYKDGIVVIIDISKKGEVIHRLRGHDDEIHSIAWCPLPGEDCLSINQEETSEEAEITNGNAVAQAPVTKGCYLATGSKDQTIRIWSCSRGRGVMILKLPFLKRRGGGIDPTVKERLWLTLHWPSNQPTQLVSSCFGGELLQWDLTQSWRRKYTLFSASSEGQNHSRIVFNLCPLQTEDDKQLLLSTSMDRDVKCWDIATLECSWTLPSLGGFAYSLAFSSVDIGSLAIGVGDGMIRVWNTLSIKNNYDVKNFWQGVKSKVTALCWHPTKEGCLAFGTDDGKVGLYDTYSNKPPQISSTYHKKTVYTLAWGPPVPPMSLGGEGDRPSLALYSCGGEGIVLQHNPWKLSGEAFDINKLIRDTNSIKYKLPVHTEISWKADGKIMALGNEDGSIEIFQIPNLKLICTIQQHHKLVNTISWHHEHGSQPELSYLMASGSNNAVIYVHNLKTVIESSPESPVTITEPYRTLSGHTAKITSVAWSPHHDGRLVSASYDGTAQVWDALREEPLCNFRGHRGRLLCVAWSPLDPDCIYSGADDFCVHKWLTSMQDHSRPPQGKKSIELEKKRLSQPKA

Gemin5 WD40 domain [1] = biological target: T2, Gemin5 WD40 domain (Homo sapiens, UniProt Q8TEQ6 1-739); assay: ITC
Gemin5 WD40 domain [2] = biological target: T2, Gemin5 WD40 domain; assay: crystal structure
Gemin5 WD40 Y474A = Gemin5 WD40 Y474A (Homo sapiens, UniProt Q8TEQ6 1-739, Y474A); assay: ITC
Gemin5 WD40 E197A = Gemin5 WD40 E197A (Homo sapiens, UniProt Q8TEQ6 1-739, E197A); assay: ITC
Sequence of Gemin5 WD40 E197A (Q8TEQ6 1-739 E197A): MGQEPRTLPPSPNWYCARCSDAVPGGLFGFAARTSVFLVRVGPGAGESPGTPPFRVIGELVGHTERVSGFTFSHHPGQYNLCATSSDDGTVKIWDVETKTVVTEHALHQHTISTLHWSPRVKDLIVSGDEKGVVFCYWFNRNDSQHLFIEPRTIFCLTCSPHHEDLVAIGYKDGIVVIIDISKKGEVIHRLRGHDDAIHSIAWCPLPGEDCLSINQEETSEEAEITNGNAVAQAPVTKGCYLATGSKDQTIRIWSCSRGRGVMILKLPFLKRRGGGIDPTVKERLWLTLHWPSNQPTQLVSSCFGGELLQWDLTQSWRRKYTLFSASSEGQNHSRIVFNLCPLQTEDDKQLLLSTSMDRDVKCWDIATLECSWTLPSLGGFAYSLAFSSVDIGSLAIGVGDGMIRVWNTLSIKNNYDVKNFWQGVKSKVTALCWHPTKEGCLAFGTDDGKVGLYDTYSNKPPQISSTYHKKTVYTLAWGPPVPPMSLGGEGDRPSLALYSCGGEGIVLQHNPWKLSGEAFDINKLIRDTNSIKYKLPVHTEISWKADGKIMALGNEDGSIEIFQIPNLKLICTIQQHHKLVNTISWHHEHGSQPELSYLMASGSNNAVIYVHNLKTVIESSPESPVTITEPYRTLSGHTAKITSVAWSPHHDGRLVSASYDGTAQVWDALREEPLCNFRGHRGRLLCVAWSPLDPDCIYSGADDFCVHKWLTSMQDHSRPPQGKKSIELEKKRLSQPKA

## C[n+]1cn([C@@H]2O[C@H](COP(=O)(O)OP(=O)(O)OP(=O)(O)OC[C@H]3O[C@@H](n4cnc5c(=O)[nH]c(N)nc54)[C@H](O)[C@@H]3O)[C@@H](O)[C@H]2O)c2nc(N)[nH]c(=O)c21 [m^7GpppG]
WD40 domain of Gemin5
  Kd: 4 µM

## AAUCUUUG (ssRNA) [pre-U4 (118-125) U121C]
Gemin5 WD40 domain [1]
  Kd: 11 ± 2 µM

## AAUUCUUG (ssRNA) [pre-U4 (118-125) U122C]
Gemin5 WD40 domain [1]
  binding result: no binding

## AAUUUUUGAG (ssRNA) [pre-U4 (118-127) crystal RNA]
Gemin5 WD40 domain [2]
  binding result: binds

## AAUUGUUG (ssRNA) [pre-U4 (118-125) U122G]
Gemin5 WD40 domain [1]
  binding result: no binding

## AAUUUUUG (ssRNA) [pre-U4 (118-125) Sm site]
Gemin5 WD40 Y474A
  binding result: binds
Gemin5 WD40 E197A
  Kd: 40 ± 5 µM

## AACUUUUG (ssRNA) [pre-U4 (118-125) U120C]
Gemin5 WD40 domain [1]
  binding result: no binding
